In paper PMC8047169:

Legend:
[1] = biological target: molybdenum-iron protein (MoFeP) of Gluconacetobacter diazotrophicus Mo-nitrogenase (Gluconacetobacter diazotrophicus)
[2] = biological target: molybdenum-iron protein (MoFeP) of Gluconacetobacter diazotrophicus Mo-nitrogenase (Gluconacetobacter diazotrophicus); remark: listed apart in the source

nitrogenase C2H2 reduction activity under 0.1 atm CO with 2 μM CowN against no CowN (0.2 μM MoFeP, 2 μM FeP) [1]: 9 fold
KD^app from a hyperbolic fit of nitrogenase C2H2 reduction activity against CowN concentration under 0.001 atm CO (MoFeP with FeP, turnover conditions) [2]: 400 nM
KD^app from a hyperbolic fit of nitrogenase C2H2 reduction activity against CowN concentration under 0.1 atm CO (MoFeP with FeP, turnover conditions) [2]: 1080 nM
B1: His-CowN (Gluconacetobacter diazotrophicus CowN, His-tagged, refolded, monomeric fraction) (natural protein)
chain: MTEQIDRYVSFRNVEWERRTAEVFALLQPHFDGSTSPFWDYFLRQRVIAHAQGLDDLRVLHNFLPTLKDLLEELDDERTLSRLEELEVLCM
